± gives the uncertainty stated by the source.

The values below come from the supplement of paper PMC9732359.

A short description of the data set: protein stability index of a GFP-peptide fusion (yeast GPS) (PSI 1-4); higher = more stable; sorted into four equal gates, so the index is relative within each strain. The essentials:
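The protein stability index of a peptide was calculated by multiplying its read frequency in each gate by that gate's number and adding the products. The peptides were tiled 17-residue stretches of yeast proteins, fused downstream of GFP on a Cherry-expressing plasmid and carried in yeast as a pooled library. Mid-log cultures in leucine-free medium were sorted into four equal gates by GFP/Cherry ratio, and each gate's plasmids were PCR-amplified and Illumina-sequenced.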

As to MTMASKSLEVVNADTVG [NSL1], the protein stability index amounted to 2.96 ± 0.078 (doa10∆), 2.82 ± 0.075 (pdr5∆), 2.7 ± 0.068 (san1∆) and 2.38 ± 0.053 (ubr1∆).

In the case of STTASGTTATGTGLFGQ [YGR119C/NUP57], the protein stability index reads like this: (doa10∆) 3.18 ± 0.074; (pdr5∆) 3.35 ± 0.067; (san1∆) 3.27 ± 0.068; (ubr1∆) 3.43 ± 0.055.

With GSHLSETEFPPFREFLQ [ECM29], the protein stability index came out at 3.12 ± 0.063 (doa10∆), 3.11 ± 0.071 (pdr5∆), 3.09 ± 0.041 (san1∆) and 2.87 ± 0.058 (ubr1∆).

Turning to SDKAQLNVVMKNLERLR [SMC4], the protein stability index was 3.28 ± 0.099 (doa10∆), 3.46 ± 0.15 (pdr5∆), 3.13 ± 0.11 (san1∆) and 2.72 ± 0.28 (ubr1∆).

Sequence VDVAIPCNNRGKHSIGL [RPS0A] returned a protein stability index (doa10∆) of 2.81 ± 0.096, a protein stability index (pdr5∆) of 2.91 ± 0.1, a protein stability index (san1∆) of 3.09 ± 0.067 and a protein stability index (ubr1∆) of 3.07 ± 0.11.

For VGKVMNKNQETAISVAK [RPT6], the protein stability index runs as follows: (pdr5∆) 3.55 ± 0.21; (san1∆) 3.23 ± 0.082; (ubr1∆) 3.4 ± 0.11.

With LKVNVTLDNPLLVDKDA [YJL039C/NUP192], the protein stability index was found to be 3.02 ± 0.077 (doa10∆), 2.93 ± 0.065 (pdr5∆), 3 ± 0.041 (san1∆) and 2.7 ± 0.051 (ubr1∆).

Consider VVEKKTVGSSNGGLIHV [RPO21], for which the protein stability index came out at 2.97 ± 0.081 (doa10∆), 3.07 ± 0.079 (pdr5∆), 2.8 ± 0.053 (san1∆) and 3 ± 0.055 (ubr1∆).

On to PLSVATELMNRSPLVTP [SRP72], for which the protein stability index is, setting by setting: (doa10∆) 2.14 ± 0.068; (pdr5∆) 2.48 ± 0.069; (san1∆) 2.4 ± 0.06; (ubr1∆) 2.03 ± 0.06.

In turn, KEKVSNGGVGVDVELIT [FAS2] had a protein stability index (doa10∆) of 2.96 ± 0.046, a protein stability index (pdr5∆) of 3.13 ± 0.062, a protein stability index (san1∆) of 3.11 ± 0.056 and a protein stability index (ubr1∆) of 3.05 ± 0.05.

Turning to TEEPDLAIADVETKLET [DSN1], the protein stability index amounted to 3.2 ± 0.12 (doa10∆), 3.35 ± 0.11 (pdr5∆), 2.48 ± 0.097 (san1∆) and 3.5 ± 0.14 (ubr1∆).

Consider VHRITDEEASYKLGKVK [RPS4A], for which the protein stability index was found to be 3.01 ± 0.087 (doa10∆), 3.13 ± 0.13 (pdr5∆), 2.98 ± 0.12 (san1∆) and 3.07 ± 0.12 (ubr1∆).

In turn, WDGVIPTPAIIKPKPLW [RPO21] came in with a protein stability index (doa10∆) of 1.88 ± 0.099, a protein stability index (pdr5∆) of 2.08 ± 0.092, a protein stability index (san1∆) of 2.41 ± 0.096 and a protein stability index (ubr1∆) of 2.06 ± 0.12.

On to IQRLRLLREKQRVRNMR [YOR098C/NUP1], for which the protein stability index came to 1.28 ± 0.086 (pdr5∆) and 1.41 ± 0.26 (ubr1∆).

In the case of YEILLKILITYGSSPKL [SRB8], the protein stability index by setting is: (doa10∆) 1.27 ± 0.055; (pdr5∆) 1.6 ± 0.053; (san1∆) 1.35 ± 0.092; (ubr1∆) 1.47 ± 0.055.

VDIRVGKKSSSSTKDYL [RET1]: the protein stability index is, setting by setting: (doa10∆) 3.42 ± 0.29; (pdr5∆) 3.37 ± 0.12; (san1∆) 3.56 ± 0.13; (ubr1∆) 2.65 ± 0.18.

QFCAFDSSSNTYRSRAQ [SIN4]: the protein stability index was 2.82 ± 0.075 (doa10∆), 2.37 ± 0.08 (pdr5∆), 2.81 ± 0.05 (san1∆) and 2.39 ± 0.057 (ubr1∆).

Consider NISFYKLHVNWNLNATK [SIN4], for which the protein stability index by setting is: (doa10∆) 2.43 ± 0.072; (pdr5∆) 2.23 ± 0.077; (san1∆) 2.18 ± 0.16; (ubr1∆) 1.48 ± 0.081.

GAPGANARMPGMPNMPG [SRP54]: the protein stability index reads like this: (doa10∆) 3.15 ± 0.083; (pdr5∆) 3.2 ± 0.28; (san1∆) 2.92 ± 0.12; (ubr1∆) 2.9 ± 0.11.

SNIDIRVRVTGGGHVSQ [RPS16A]: the protein stability index stood at 2.02 ± 0.093 (doa10∆), 2.31 ± 0.063 (pdr5∆), 2.78 ± 0.13 (san1∆) and 2.08 ± 0.044 (ubr1∆).

With LQNKPDAKKARFWSFMK [SIR4], the protein stability index reads like this: (doa10∆) 2.55 ± 0.098; (pdr5∆) 2.68 ± 0.13; (san1∆) 2.61 ± 0.093; (ubr1∆) 2.17 ± 0.19.

On to SSLRKNASGNKRSGVIE [ITC1], for which the protein stability index amounted to 2.96 ± 0.22 (doa10∆), 2.22 ± 0.15 (pdr5∆) and 2.06 ± 0.089 (ubr1∆).

For QPIFVAHTAGRYANKRF [RPS5], the protein stability index is, setting by setting: (doa10∆) 1.55 ± 0.076; (pdr5∆) 2.03 ± 0.072; (san1∆) 1.61 ± 0.12; (ubr1∆) 1.78 ± 0.069.

Take NPPSYQSSEDVITIKSR [RPB7]: the protein stability index runs as follows: (doa10∆) 2.78 ± 0.17; (san1∆) 2.6 ± 0.12; (ubr1∆) 2.25 ± 0.28.

Consider LTVYLEPGHAADQEQAK [RPO21], for which the protein stability index was found to be 2.96 ± 0.14 (doa10∆), 2.68 ± 0.1 (pdr5∆), 3.05 ± 0.081 (san1∆) and 3.13 ± 0.083 (ubr1∆).

With IIHVLTTMFENTGWSCS [RGR1], the protein stability index reads like this: (doa10∆) 2.16 ± 0.054; (pdr5∆) 2.33 ± 0.077; (san1∆) 2.7 ± 0.077; (ubr1∆) 2.73 ± 0.044.
